Columns and labels:
Settings in all cases: chain copies: 4; label: 32P
p53 Arg284 delta364-393 [1] = target: T1, p53 Arg284 delta364-393 (Homo sapiens, UniProt P04637 SEQ:1-363); experiment: EMSA; enhanced vs wild type
Procedure: (§1) For analysis of DNA binding activity, these proteins were incubated with ^32P-labeled oligonucleotides and subjected to electrophoresis as described [Halazonetis (1993a and 1993b) and Waterman (1995), both cited above]. […] CCC-GAACA-TGTCC-CAACA-TGTTG-GGG, each contain a p53 binding site, which is underlined. […] Oligonucleotide Egadd45has the sequence [SEQ ID NO: 31] ACA-GAACA-TGTCT-AAGCA-TGCTG-GGGA. Oligonucleotide TF3, which contains three tandem repeats of [SEQ ID NO: 32] […], is a non-specific DNA [Halazonetis et al, *EMBO J.*, 12:1021–1028 (1993)].
(§2) Figure 4: FIG. 4 illustrates the effect of the Thr284 to Arg substitution on binding of wild-type p53 and tumor-derived p53 mutants to a high affinity DNA site, and to the sites in the p21^cip1 and gadd45 genes (oligonucleotides BC, Ep21 and Egadd45, respectively). Binding was assayed by gel retardation shift analysis on native electrophoretic gels. Only the region of the gel corresponding to the p53-DNA complexes is shown. The amino acids are abbreviated using the single letter code: Arg, R; Cys, C; Gln, Q; His, H; Lys, K.

p53 delta364-393 = p53 delta364-393 (Homo sapiens, UniProt P04637 SEQ:1-363); experiment: EMSA
Procedure: as §1, §2

p53 Arg284 delta364-393 [2] = target: T1, p53 Arg284 delta364-393; experiment: EMSA; enhancement not noted on this site
Procedure: as §1, §2

p53 Ser249 = p53 Ser249 (Homo sapiens, UniProt P04637 SEQ:1-393); experiment: EMSA; not activated by PAb421
Procedure: as §1

Row | Binder | binding result (p53 Arg284 delta364-393 [1]) | binding result (p53 delta364-393) | binding result (p53 Arg284 delta364-393 [2]) | binding result (p53 Ser249)
1 | oligonucleotide Ep21 (dsDNA) DNA 1: CCCGAACATGTCCCAACATGTTGGGG DNA 2: CCCCAACATGTTGGGACATGTTCGGG | binds |  |  | 
2 | oligonucleotide Egadd45 (dsDNA) DNA 1: ACAGAACATGTCTAAGCATGCTGGGGA DNA 2: TCCCCAGCATGCTTAGACATGTTCTGT |  | binds | binds | 
3 | oligonucleotide BC (dsDNA) DNA 1: CCGGGCATGTCCGGGCATGTCCGGGCATGT DNA 2: ACATGCCCGGACATGCCCGGACATGCCCGG | binds |  |  | no binding
